The source of these data is patent US20160304584, “MAFB MUTANTS AND USES THEREOF” (INSERM (INSTITUT NATIONAL DE LA SANTÉ ET DE LA …, published 2016).

Data set [1] deals with MafB (E269R) full-length with c-Fos (UniProt P54841;P01101 P54841:1-323,P01101:1-380, MafB E269R). Kind of data set: cell_activity; luciferase, HEK293, with c-Fos. The protocol:
HEK293 cells were grown in Dulbecco's modified eagle's medium supplemented with 10% fetal bovine serum in six-well plates to reach 60-80% confluence at the time of transfection. DNA was transfected by calcium phosphate precipitation procedure as previously described (Sieweke et al., 1996). pTK81 luciferase reporter constructs (200 ng) (Promega) containing three multimerized T-MARE(alpha) ([…] CA […]), T-MARE(beta) ([…] CA […]), or T-MARE (y) ([…] […]) were cotransfected with 200 ng of Rc/CMV (Invitrogen) constructs driving the expression of wt and mutant full-length MafB with or without 200 ng of Rc/CMV construct driving the expression of c-Fos or no transgene (vector control). Assays were performed in duplicate. The transfection efficiency was normalized by assaying for β-galactosidase activity from a cotransfected CVM-LacZ construct, and luciferase activity was analyzed as previously described (Sieweke et al., 1996). […] The transfection efficiency was normalized, by assaying for β-galactosidase activity from a cotransfected CVM-LacZ construct, and luciferase activity was analyzed using a dual-luciferase reporter assay system (Promega, Cat: E1910) according to the manufacturer's recommendations.

Data set [2] addresses T1, MafB (wt)/c-Fos heterodimer (UniProt P54841;P01101 P54841:211-305,P01101:138-200). Kind of data set: EMSA; comparable to homodimer at equimolar ratio; favoured with excess c-Fos. Particulars: label: 32P. Here is the method:
(§1) Double-stranded synthetic oligonucleotides corresponding to the T-MARE(a) ([…]) (SEQ ID NO:5), to T-MARE(beta) ([…]) (SEQ ID NO:6) or to T-MARE(y) ([…]) (SEQ ID NO:7) sites were incubated with Klenow fragment DNA polymerase in the presence of [α³²P][…] and purified on Qiaquick Spin Columns (Qiagen). Increasing amount (0.25 to 64 pmol) of recombinant c-Fos and recombinant protein (4 pmol) of MafB (wt) or MafB (E269R) and MafB (V277N) mutants were incubated with 0.05 ng of probe in 20 μL of binding reaction buffer (20 mM Tris-HCl (pH 7.5), 100 mM KCl, 0.1 mM EDTA, 5% glycerol, 0.1% Triton X-100, 0.02% BSA, […] poly d[I-C]) for 20 min. Complexes formed were resolved on a 6% polyacrylamide (acrylamide/bisacrylamide ratio, 29:1) non-denaturating gel (Bio-Rad) in 0.5% Tris-glycine. Gels were dried and autoradiographed at −80° C.

In data set [3] the target is T2, MafB (wt) homodimer (UniProt P54841 SEQ:211-305). The data set is described as follows: EMSA; comparable to heterodimer at equimolar c-Fos; favoured with excess MafB. To be noted: chain copies: 2; label: 32P. The protocol: as §1
For data set [4], the target named is MafB (wt) fragment 211-305 C298S, homodimer (Mus musculus, UniProt P54841 SEQ:211-305, C298S). The data set is described as follows: structure; 2.9 A crystal structure; 50 mM MgCl2 in complex buffer. To be noted: chain copies: 2. The protocol: The C-terminal region of MafB from Mus musculus (residues 211-305, C298S) was purified as previously described (Textor et al., 2007). Homodimeric MafB₂ complexes were dialyzed overnight into 30 mM Tris-HCl (pH 7.3), 80 mM NaCl, 50 mM MgCl₂ and 3 mM β-mercaptoethanol at room temperature in the presence of an oligonucleotide encompassing the T-MARE-binding site (forward: […] (SEQ ID NO:3); reverse: […] (SEQ ID NO:4), METABION). The protein-DNA complex was further purified by size exclusion chromatography on a Superdex-75 (16/60) column (GE), equilibrated with the dialysis buffer. The pooled peak fractions corresponding to the (MafB)₂/T-MARE complex were analyzed by SDS-PAGE and native PAGE gels and concentrated to 5 mg/mL, using a centrifugal concentrator with a polyethersulfone membrane with a 10,000 MWCO (VIVASPIN, Sartorius Stedim Biotech). Crystallization drops of 400 nL volume, using a 1:1 protein/mother liquor ratio, were set up in 96-well sitting-drop plates and allowed to equilibrate at 19° C. Diffracting crystals grew in the presence of 0.1 M Na-citrate (pH 5.0), 15% [w/v] PEG-4000, 5% [v/v] PEG-400, and 0.1 M MgCl₂.

In data set [5] the target is T2, MafB (wt) homodimer. Kind of data set: EMSA; only homodimer bound. Particulars: chain copies: 2; label: 32P. Here is the method:
as §1

The target of data set [6] is MafB (V277N) homodimer (UniProt P54841 SEQ:211-305, V277N). Kind of data set: EMSA; no enhanced site selection compared with wt. Particulars: chain copies: 2; label: 32P. Here is the method:
as §1

For data set [7], the target named is T1, MafB (wt)/c-Fos heterodimer. The data set is described as follows: EMSA; no significant heterodimer detected. Particulars: label: 32P. Here is the method:
as §1

Data set [8] shares this target. The data set is described as follows: EMSA; strongly preferred over homodimer. Particulars: label: 32P. Here is the method: as §1
Data set [9] concerns the target MafB (V277N)/c-Fos heterodimer (UniProt P54841;P01101 P54841:211-305,P01101:138-200, MafB V277N). The data set is described as follows: EMSA; binding unchanged versus wt. To be noted: label: 32P. Here is the method:
as §1

The target in data set [10] is MafB (E269R)/c-Fos heterodimer (UniProt P54841;P01101 P54841:211-305,P01101:138-200, MafB E269R). The data set is described as follows: EMSA; exclusive heterodimer even at residual c-Fos. To be noted: label: 32P. Here is the method: as §1
Sequence of MafB (E269R)/c-Fos heterodimer (P54841 211-305 E269R, chain 1 of 2): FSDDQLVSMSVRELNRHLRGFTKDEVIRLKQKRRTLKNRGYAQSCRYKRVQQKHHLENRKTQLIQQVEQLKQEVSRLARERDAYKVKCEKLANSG
Sequence of MafB (E269R)/c-Fos heterodimer (P01101 138-200, stated change not applied, chain 2 of 2): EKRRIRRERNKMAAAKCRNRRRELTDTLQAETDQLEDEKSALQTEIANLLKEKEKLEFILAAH

T1 sequence (P54841 211-305, chain 1 of 2): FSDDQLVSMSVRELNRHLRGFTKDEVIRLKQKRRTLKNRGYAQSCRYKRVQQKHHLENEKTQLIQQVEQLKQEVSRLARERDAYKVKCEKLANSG
T1 sequence (P01101 138-200, chain 2 of 2): as the sequence (P01101 138-200, stated change not applied, chain 2 of 2) above
T2 sequence (P54841 211-305): as the sequence (P54841 211-305, chain 1 of 2) above
Sequence of MafB (E269R) full-length with c-Fos (P54841 whole entry E269R, chain 1 of 2): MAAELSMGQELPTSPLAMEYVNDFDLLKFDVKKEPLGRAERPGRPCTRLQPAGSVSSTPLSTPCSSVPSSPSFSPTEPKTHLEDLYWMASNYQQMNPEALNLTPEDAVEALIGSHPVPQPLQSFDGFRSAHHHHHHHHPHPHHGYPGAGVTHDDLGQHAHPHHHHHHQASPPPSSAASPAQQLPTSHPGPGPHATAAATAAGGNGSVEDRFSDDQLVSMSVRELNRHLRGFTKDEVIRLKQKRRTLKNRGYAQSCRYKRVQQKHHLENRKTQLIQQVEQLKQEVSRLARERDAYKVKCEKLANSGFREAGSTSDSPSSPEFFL
Sequence of MafB (E269R) full-length with c-Fos (P01101 whole entry, stated change not applied, chain 2 of 2): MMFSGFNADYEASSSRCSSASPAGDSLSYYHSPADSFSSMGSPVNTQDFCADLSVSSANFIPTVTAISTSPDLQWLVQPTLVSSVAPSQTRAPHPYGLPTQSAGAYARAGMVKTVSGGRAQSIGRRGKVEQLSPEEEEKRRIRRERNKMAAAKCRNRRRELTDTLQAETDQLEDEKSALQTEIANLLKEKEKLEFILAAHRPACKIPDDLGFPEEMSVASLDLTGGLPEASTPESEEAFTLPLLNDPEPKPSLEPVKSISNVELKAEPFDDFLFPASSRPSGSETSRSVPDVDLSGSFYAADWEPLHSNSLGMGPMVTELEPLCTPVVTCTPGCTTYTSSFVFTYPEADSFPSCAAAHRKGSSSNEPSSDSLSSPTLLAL
Sequence of MafB (wt) fragment 211-305 C298S, homodimer (P54841 211-305 C298S): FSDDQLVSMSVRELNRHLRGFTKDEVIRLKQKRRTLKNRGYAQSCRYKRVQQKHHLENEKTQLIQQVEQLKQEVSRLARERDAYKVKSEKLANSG
Sequence of MafB (V277N) homodimer (P54841 211-305 V277N): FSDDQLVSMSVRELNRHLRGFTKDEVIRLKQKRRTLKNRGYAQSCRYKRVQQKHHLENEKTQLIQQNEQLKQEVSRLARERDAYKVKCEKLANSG
Sequence of MafB (V277N)/c-Fos heterodimer (P54841 211-305 V277N, chain 1 of 2): as the sequence (P54841 211-305 V277N) above
Sequence of MafB (V277N)/c-Fos heterodimer (P01101 138-200, stated change not applied, chain 2 of 2): as the sequence (P01101 138-200, stated change not applied, chain 2 of 2) above

B1: T-MARE(beta) x3 reporter (dsDNA)
DNA 1: TCGACCTCCCCTCCTATGAGTCAGCAATTCTCTCGAGCTCCCCTCCTATGAGTCAGCAATTCTCTCGAGCTCCCCTCCTATGAGTCAGCAATTCTCGTCGACCC
DNA 2: GGGTCGACGAGAATTGCTGACTCATAGGAGGGGAGCTCGAGAGAATTGCTGACTCATAGGAGGGGAGCTCGAGAGAATTGCTGACTCATAGGAGGGGAGGTCGA
In data set [1], B1 registered an activity of 5 fold vs wt.

B2: T-MARE(alpha) (dsDNA)
DNA 1: TCGTCCCTTATGCTGACTCAGCAATTCTC
DNA 2: GAGAATTGCTGAGTCAGCATAAGGGACGA
Regarding B2, the binding result in data set [2] and in data set [3] was “binds” throughout.

B3: T-MARE 20-bp (dsDNA)
DNA 1: TAATTGCTGACTCAGCAATT
DNA 2: TAATTGCTGAGTCAGCAATT
For B3, in [4], the binding result is “binds”.

B4: T-MARE(gamma) (dsDNA)
DNA 1: TCGTCCCTTATGCCTACTAGGCAATTCTC
DNA 2: GAGAATTGCCTAGTAGGCATAAGGGACGA
As to B4, the binding result is recorded as “binds” in data set [5], “binds” in data set [6] and “no binding” in [7].

B5: T-MARE(beta) (dsDNA)
DNA 1: TCGTCCCCTCCTATGAGTCAGCAATTCTC
DNA 2: GAGAATTGCTGACTCATAGGAGGGGACGA
As to B5, the binding result in data set [8], in data set [9] and in [10] was “binds” in each case.
